According to patent publication US20090214427:

Experiments:
[1] = molecular target: T1, synthetic peptide HK2p01 (SRFKVWWAAG)
T1 chain: SRFKVWWAAG

[2] = molecular target: T2, synthetic peptide HK2p03 (PARRPFPVTA)
T2 chain: PARRPFPVTA

[3] = molecular target: T3, synthetic peptide HK2p02 (AARRPFPAPS)
T3 chain: AARRPFPAPS

Measured: enzyme activity (chromogenic substrate)

B1: human plasmin (protein)
chain: KVYLSECKTGNGKNYRGTMSKTKNGITCQKWSSTSPHRPRFSPATHPSEGLEENYCRNPDNDPQGPWCYTTDPEKRYDYCDILECEEECMHCSGENYDGKISKTMSGLECQAWDSQSPHAHGYIPSKFPNKNLKKNYCRNPDRELRPWCFTTDPNKRWELCDIPRCTTPPPSSGPTYQCLKGTGENYRGNVAVTVSGHTCQHWSAQTPHTHNRTPENFPCKNLDENYCRNPDGKRAPWCHTTNSQVRWEYCKIPSCDSSPVSTEQLAPTAPPELTPVVQDCYHGDGQSYRGTSSTTTTGKKCQSWSSMTPHRHQKTPENYPNAGLTMNYCRNPDADKGPWCFTTDPSVRWEYCNLKKCSGTEASVVAPPPVVLLPDVETPSEEDCMFGNGKGYRGKRATTVTGTPCQDWAAQEPHRHSIFTPETNPRAGLEKNYCRNPDGDVGGPWCYTTNPRKLYDYCDVPQCAAPSFDCGKPQVEPKKCPGRVVGGCVAHPHSWPWQVSLRTRFGMHFCGGTLISPEWVLTAAHCLEKSPRPSSYKVILGAHQEVNLEPHVQEIEVSRLFLEPTRKDIALLKLSSPAVITDKVIPACLPSPNYVVADRTECFITGWGETQGTFGAGLLKEAQLPVIENKVCNRYEFLNGRVQSTELCAGHLAGGTDSCQGDSGGPLVCFEKDKYILQGVTSWGLGCARPNKPGVYVRVSRFVTWIEGVMRNN
showed no inhibition: all assays above

B2: human trypsin 3 (protein)
chain: IVGGYTCEENSLPYQVSLNSGSHFCGGSLISEQWVVSAAHCYKTRIQVRLGEHNIKVLEGNEQFINAAKIIRHPKYNRDTLDNDIMLIKLSSPAVINARVSTISLPTTPPAAGTECLISGWGNTLSFGADYPDELKCLDAPVLTQAECKASYPGKITNSMFCVGFLEGGKDSCQRDSGGPVVCNGQLQGVVSWGHGCAWKNRPGVYTKVYNYVDWIKDTIAANS
showed no inhibition: all assays above

B3: human trypsin 2 (protein)
chain: IVGGYICEENSVPYQVSLNSGYHFCGGSLISEQWVVSAGHCYKSRIQVRLGEHNIEVLEGNEQFINAAKIIRHPKYNSRTLDNDILLIKLSSPAVINSRVSAISLPTAPPAAGTESLISGWGNTLSSGADYPDELQCLDAPVLSQAECEASYPGKITNNMFCVGFLEGGKDSCQGDSGGPVVSNGELQGIVSWGYGCAQKNRPGVYTKVYNYVDWIKDTIAANS
showed no inhibition: all assays above
